Data from patent US20090291088A1, “THERAPEUTIC COMBINATIONS OF ANTI-IGF-1R ANTIBODIES AND OTHER COMPOUNDS” (Biogen Idec MA Inc., priority 2008, published 2009).

B1: P2A7.3E11: murine anti-human IGF-1R monoclonal antibody from hybridoma; VH SEQ ID NO:38, VL SEQ ID NO:98 (antibody, V domains shown)
VH: QVQLQQSGPELVKPGASVKMSCKASGNTFTDYVINWVKQRTGQGLEWIGEIYPGNENTYYNEKFKGKATLTADKSSNTAYMQLSSLTSEDSAVYFCARGIYYYGSRTRTMDYWGQGTSVTVSS
VL: EVVLTQSPTAMAASPGEKITITCSASSTLSSNYLHWYQQKPGFSPKLLIYRTSNLASGVPGRFSGSGSGTSYSLTIGTMEAEDVATYYCQQGSSIPLTFGAGTKLELK
modifications: Antibody variable heavy chain sequence; Antibody variable light chain sequence
B2: P1E2.3B12: murine anti-human IGF-1R monoclonal antibody from hybridoma; VH SEQ ID NO:63, VL SEQ ID NO:118 (antibody, V domains shown)
VH: QVQLQQPGAELVKPGASVKLSCKASGYTFTSYWMHWVKQRPGQGLEWIGEINPTYGRSNYNEKFKSKATLTVDKSSSTAYMQLSSLTSEDSAVYYCARLVRLRYFDVWGAGTTVTVSS
VL: DIVMTQAAFSNPVTLGTSASISCRSSKSLLHSNGITYLYWYLQKPGQSPQLLIYQMSNLASGVPDRFSSSGSGTDFTLRISRVEAEDVGVYYCAQNLELPYTFGGGTKLEIK
modifications: Antibody variable heavy chain sequence; Antibody variable light chain sequence
B3: P1A2.2B11: murine anti-human IGF-1R monoclonal antibody from hybridoma; VH SEQ ID NO:48, VL SEQ ID NO:108 (antibody, V domains shown)
VH: QIQLVQSGPELKKPGETVKISCKASGYTFTNHGMNWVKQAPGKGLKWMGWNTSTGEPTYADDFKGRFAFSLETSASTAFLQINNLKNEDTASYFCASPLYYMYGRYIDVWGAGTAVTVSS
VL: DIQMTQTTSSLSASLGDRVTISCRASQDISNYLNWYQQKPDGTIKLLIYYTSRLHSGVPSRFSGSGSGTDYSLTISNLEQEDFATYFCQQGKTLPWTFGGGTKLEIK
modifications: Antibody variable heavy chain sequence; Antibody variable light chain sequence

How the values were obtained:
IGF-1R = biological target: T1, IGF-1R (Homo sapiens, UniProt P08069); experiment: Ligand blocking assay (RIA): 125I-IGF-1 / 125I-IGF-2 binding to immobilized IGF-1R; conditions: murine monoclonal antibodies
T1 construct: human IGF-1R(1-903)-Fc (denoted hIGF-1R-Fc, generated by Biogen Idec)
Text: Ligand blocking assay (RIA). […] Insulin (Arg-Insulin, Cat #01-207) was purchased from Upstate Cell Signaling Solutions (Lake Placid, N.Y. (now part of Millipore, Concord, Mass. (USA)). ^125I-rhIGF-1 (Cat # IM172), ^125I-rhIGF-2 (Cat# IM238) and ^125I-rhInsulin (Cat# IM166) were purchased from Amersham Biosciences (Piscataway, N.J.). AffiPure goat anti-human IgG, Fcγ fragment specific antibodies (Cat #109-005-098, Jackson ImmunoResearch, West Grove, Pa.) was used for IGF-1R-Fc capture. As detection antibody, goat anti-mouse IgG HRP (Cat #1030-05, Southern Biotech Birmingham, Ala.) was used.
Human insulin receptor α-subunit specific antibodies, Clone 83-14, (Cat #AHR0221, Biosource International, Inc., Camarillo, Calif.) and the 47-9 (Cat #E55502M, Biodesign International, Saco, M E) were used as positive controls blocking of insulin-insulin receptor binding experiments. Recombinant IGF-1R-Fc fusion protein was produced at Biogen Idec (Cambridge, Mass.).
As isotype matched mouse negative control antibodies, 2B8 (murine α-CD20.1gG,) and 2B8 mkm.G2a (murine α-CD20 MAb, IgG2a, Biogen Idec, Lot #NB3304-87, San Diego, Calif.) were used. The negative control for Fabs was R001-1B provided by Christilyn Graff (Biogen Idec, Cambridge, Mass.). PBS used in buffers was from BioWhittaker (Cat. # 17-513F, Walkersville, Md.).
Recombinant human IGF-1R (Histidine tagged version) or IGF-1R-Fc was coated onto IMMULON2 HB (high binding) Removawell strips (Dynex Technologies, Inc., cat. #6302) diluted with carbonate coating buffer pH 9.5 to a concentration of 250 ng/well. After overnight incubation at 4° C., the wells were washed three times with washing buffer (0.05% Tween 20/PBS) then blocked with blocking buffer (3% BSA/PBS) for one hour at room temperature. The blocking buffer was removed and the wells washed three more times. Antibody, Fab, or ligand preparations were diluted to desired concentration with dilution buffer (1% BSA/0.05% Tween 20/PBS) and plated at 50 μl per well in duplicate. After 45 minutes at room temperature, 100,000 cpm of either [125I] rhIGF-1 or [125I] rhIGF-2 in 50 μl dilution buffer was added per well. This was incubated at room temperature for one more hour. The wells were washed again three more times and left liquid free after the last wash. The air-dried wells were counted with the Isodata Gamma Counter.
Alternatively, Fabs were evaluated by a modified capture assay, where the IGF-1R-Fc was captured using anti-human IgG immobilized to a plate. Immobilization was carried out by overnight incubation of goat anti-human IgG, Fcγ fragment specific antibody (200 ng/well) in carbonate coating buffer. The wells were washed, blocked and 250 ng of IGF-1R-Fc was added per well.
The ligand blocking ability of the anti-IGF-1R antibody was determined by a solid phase RIA capture method as described in Example 3. […] After 1 hour of incubation at room temperature, the wells were washed and counted for bound radioactivity by a Gamma Counter. An isotype matched negative antibody control, IDEC-151 (human G4), was used. Percent (%) inhibition was calculated as =[1−(Ave.CPM with Ab)/(Ave.CPM with buffer)]×100%.

IGF-1R phosphorylation = biological target: T2, IGF-1R phosphorylation (Homo sapiens, UniProt P08069); experiment: Inhibition of IGF-1 and IGF-2 mediated IGF-1R phosphorylation in MCF-7 cells (ELISA); type: cell-based; conditions: murine monoclonal antibodies
T2 construct: wild type IGF-1R expressed on MCF-7 tumor cells; endogenous in cells; host or cells: MCF-7
Method: Cell lines: IGF1R expressing human breast carcinoma cell line MCF-7 (NCI) were maintained at 37° C. and 5% CO2 in MEM eagle (ATCC) containing 10% FBS, 1× non-essential amino acids, 2 mM L-glutamine, 1 mM sodium pyruvate and 1000 U/ml penicillin and streptomycin. Cells were sub-cultured twice weekly for maintenance and assay, and used with a maximum of 12 passages.
MCF-7 cells were plated in 2 ml growth media at 2×10^5 to 4.0×10^5 cells/well in Ploy-D-Lysine coated 12 well plates (BD Biosciences, #35-6470) and cultured at 37° C., 5% CO2. At 48 hours, media removed and cells serum starved overnight at 37° C., 5% CO2 Serum free media was removed and control or test antibodies at indicated concentration were added in 350 ul of fresh serum free media and incubated for 1 hour at room temperature, or alternately at 37° C. Fabs were tested at 200 nM, 20 nM and 2 nM concentration and the mAbs were tested at 67, 6.7 and 0.67 nM. The commercial anti-IGF-1R control antibody used was αIR3 (EMD biosciences, Oncogene Research products, #D27249). […] Ligand was incubated at […] for 37° C. antibody experiments. Cells were lysed in 1× cell lysis buffer (Cell Signal Technologies, #9803) with 1 mM PMSF for 1 hour at room temperature.
Cell lysates were added to ELISA plates pre-coated with IGF-1Rp antibody (Clone 1-2, Biosource International, #AHR0361) and incubated for 2 hours. Following which plates were washed and the plate bound phosphorylated receptor was detected with the biotin labeled anti-phosphotyrosine antibody 4G10 (Catalog #16-103, Upstate Cell Signaling Solutions (Lake Placid, N.Y. (now part of Millipore, Concord, Mass. (USA)) and streptavidin-HRP (BD Pharmingen, #554066). Assay is developed by addition of TMB substrate (Kierkegaard & Perry, #50-76-00) and color stopped by addition of […] (LabChem, Cat#LC25830-1). Optical density is measured at 450 nm using a Molecular Devices plate reader and percent inhibition over the ligand control is calculated for each antibody-ligand sample.
The effect of human anti-IGF-1R antibodies on IGF-1R signaling was evaluated using MCF-7 cells (human breast adenocarcinoma cells).

MCF-7 = experiment: Ki67 inhibition in MCF-7 cells; type: cell-based, human; conditions: breast cancer cell
NCI-H23 = experiment: IGF driven tumor cell growth, CELL TITER-GLO, H-23; type: cell-based, human; conditions: for inhibition of IGF-1 and IGF-2 driven cell proliferation in H-23: NCI-H23 lung tumor cell line; for Proliferation of Tumor Cells H-23: lung cancer cells
Method: (§1) NCI-H23, Calu-6, Colo-205, Panc-1, BxPC-3 (ATCC) tumor lines were purchased from ATCC. Cell lines were grown in complete growth medium containing RPMI-1640 (ATCC), 10% fetal bovine serum (Irvine Scientific Inc.) and 50 μg/ml of Gentamycin (Gibco, Invitrogen). Trypsin-EDTA solution (Sigma) was used for removal of adherent cells from culture vessels. Phosphate buffered saline, pH 7.2, was from MediaTech Inc The 96-well clear bottom plates for luminescent assay was purchased from Wallac Inc.
(§2) Cells grown to 80% monolayers were, trypsinized, washed, resuspended and plated into 96-well plates in 200 μl of 2% growth medium at 8×10^3 cells/well for NCI-H23 and Colo-205 cells; and 5×10^3 cells/well for Calu-6, Panc-1 and BxPC-3 cells. After 24 hours, the culture medium was replaced with 100 μl of serum free medium (SFM), and 50 μl of serially diluted antibodies at 4× concentration was added. […] All treatments were done in triplicates. Cell growth was measured using the CELL TITER-GLO™ Luminescent Cell Viability Assay (Promega, Madison, Wis.). The 1:1 mixture of reagent and SFM was added at 200 μl/well. Luminescence was detected on Wallac (Boston, Mass.) plate reader.
(§3) The ability of the selected murine antibodies to inhibit IGF/IGF-1R dependent in vitro growth of several human tumor lines (Lung, H-23, Calu-6; Pancreas, BxPc-3, Panc-1, MiaPaCa and Colon Colo205) was measured by a proliferation assay described in Example 13.
A commercially available anti-IGF-1R antibody (IR3) was used as a positive control. The mouse IgG (anti-IDectin, IgG1) and human gamma 4 version of IDEC-152 antibody of irrelevant specificity were used as isotype matched controls for the experiments. […]

Calu-6 = experiment: IGF driven tumor cell growth, CELL TITER-GLO, Calu-6; type: cell-based, human; conditions: lung cancer cells
Method: as §1, §2, §3

Panc-1 = experiment: IGF driven tumor cell growth, CELL TITER-GLO, Panc-1; type: cell-based, human; conditions: pancreatic cancer cell
Method: as §1, §2, §3

Colo-205 = experiment: IGF driven tumor cell growth, CELL TITER-GLO, Colo-205; type: cell-based, human; conditions: colon cancer cell
Method: as §1, §2, §3

Molecule | IGF Blocking IGF-1 (IGF-1R) | Inhibition of IGF-1R.pTyr IGF-1 (IGF-1R phosphorylation) | Inhibition of IGF-1R.pTyr IGF-2 (IGF-1R phosphorylation) | Proliferation of Tumor Cells MCF-7* (Ki67 Inhibit.) (MCF-7) | inhibition of IGF-1 and IGF-2 driven cell proliferation in H-23 (NCI-H23) | Proliferation of Tumor Cells H-23 (NCI-H23) | Proliferation of Tumor Cells Calu-6 (Calu-6) | Proliferation of Tumor Cells Panc-1 (Panc-1) | Proliferation of Tumor Cells Colo-205 (Colo-205)
B1 | +++ (>40%@0.1 μg/ml) | +++ (>30%@0.1 μg/ml) | ++ (>30%@1 μg/ml) | ++ (>50%@1 μg/ml) | showed inhibition | ++++ (>30%@0.01 μg/ml) | +++ (>30%@0.1 μg/ml) | ++++ (>30%@0.01 μg/ml) | +++ (>30%@0.1 μg/ml)
B2 | +++ (>40%@0.1 μg/ml) | +++ (>30%@0.1 μg/ml) | +++ (>30%@0.1 μg/ml) | ++ (>50%@1 μg/ml) | – | ++++ (>30%@0.01 μg/ml) | ++ (>30%@1 μg/ml) | ++ (>30%@1 μg/ml) | ++ (>30%@1 μg/ml)
B3 | +++ (>40%@0.1 μg/ml) | +++ (>30%@0.1 μg/ml) | +++ (>30%@0.1 μg/ml) | ++ (>50%@1 μg/ml) | showed inhibition | +++ (>30%@0.1 μg/ml) | ++ (>30%@1 μg/ml) | +++ (>30%@0.1 μg/ml) | +++ (>30%@0.1 μg/ml)
